In patent US20040053347A1:

Target: BRCA2 protein, endogenous in cell extracts (human) (UniProt P51587)
Assay: estimate from co-immunoprecipitation with anti-BRCA2 antibodies

UniProt P51587, sequence (P51587 whole entry): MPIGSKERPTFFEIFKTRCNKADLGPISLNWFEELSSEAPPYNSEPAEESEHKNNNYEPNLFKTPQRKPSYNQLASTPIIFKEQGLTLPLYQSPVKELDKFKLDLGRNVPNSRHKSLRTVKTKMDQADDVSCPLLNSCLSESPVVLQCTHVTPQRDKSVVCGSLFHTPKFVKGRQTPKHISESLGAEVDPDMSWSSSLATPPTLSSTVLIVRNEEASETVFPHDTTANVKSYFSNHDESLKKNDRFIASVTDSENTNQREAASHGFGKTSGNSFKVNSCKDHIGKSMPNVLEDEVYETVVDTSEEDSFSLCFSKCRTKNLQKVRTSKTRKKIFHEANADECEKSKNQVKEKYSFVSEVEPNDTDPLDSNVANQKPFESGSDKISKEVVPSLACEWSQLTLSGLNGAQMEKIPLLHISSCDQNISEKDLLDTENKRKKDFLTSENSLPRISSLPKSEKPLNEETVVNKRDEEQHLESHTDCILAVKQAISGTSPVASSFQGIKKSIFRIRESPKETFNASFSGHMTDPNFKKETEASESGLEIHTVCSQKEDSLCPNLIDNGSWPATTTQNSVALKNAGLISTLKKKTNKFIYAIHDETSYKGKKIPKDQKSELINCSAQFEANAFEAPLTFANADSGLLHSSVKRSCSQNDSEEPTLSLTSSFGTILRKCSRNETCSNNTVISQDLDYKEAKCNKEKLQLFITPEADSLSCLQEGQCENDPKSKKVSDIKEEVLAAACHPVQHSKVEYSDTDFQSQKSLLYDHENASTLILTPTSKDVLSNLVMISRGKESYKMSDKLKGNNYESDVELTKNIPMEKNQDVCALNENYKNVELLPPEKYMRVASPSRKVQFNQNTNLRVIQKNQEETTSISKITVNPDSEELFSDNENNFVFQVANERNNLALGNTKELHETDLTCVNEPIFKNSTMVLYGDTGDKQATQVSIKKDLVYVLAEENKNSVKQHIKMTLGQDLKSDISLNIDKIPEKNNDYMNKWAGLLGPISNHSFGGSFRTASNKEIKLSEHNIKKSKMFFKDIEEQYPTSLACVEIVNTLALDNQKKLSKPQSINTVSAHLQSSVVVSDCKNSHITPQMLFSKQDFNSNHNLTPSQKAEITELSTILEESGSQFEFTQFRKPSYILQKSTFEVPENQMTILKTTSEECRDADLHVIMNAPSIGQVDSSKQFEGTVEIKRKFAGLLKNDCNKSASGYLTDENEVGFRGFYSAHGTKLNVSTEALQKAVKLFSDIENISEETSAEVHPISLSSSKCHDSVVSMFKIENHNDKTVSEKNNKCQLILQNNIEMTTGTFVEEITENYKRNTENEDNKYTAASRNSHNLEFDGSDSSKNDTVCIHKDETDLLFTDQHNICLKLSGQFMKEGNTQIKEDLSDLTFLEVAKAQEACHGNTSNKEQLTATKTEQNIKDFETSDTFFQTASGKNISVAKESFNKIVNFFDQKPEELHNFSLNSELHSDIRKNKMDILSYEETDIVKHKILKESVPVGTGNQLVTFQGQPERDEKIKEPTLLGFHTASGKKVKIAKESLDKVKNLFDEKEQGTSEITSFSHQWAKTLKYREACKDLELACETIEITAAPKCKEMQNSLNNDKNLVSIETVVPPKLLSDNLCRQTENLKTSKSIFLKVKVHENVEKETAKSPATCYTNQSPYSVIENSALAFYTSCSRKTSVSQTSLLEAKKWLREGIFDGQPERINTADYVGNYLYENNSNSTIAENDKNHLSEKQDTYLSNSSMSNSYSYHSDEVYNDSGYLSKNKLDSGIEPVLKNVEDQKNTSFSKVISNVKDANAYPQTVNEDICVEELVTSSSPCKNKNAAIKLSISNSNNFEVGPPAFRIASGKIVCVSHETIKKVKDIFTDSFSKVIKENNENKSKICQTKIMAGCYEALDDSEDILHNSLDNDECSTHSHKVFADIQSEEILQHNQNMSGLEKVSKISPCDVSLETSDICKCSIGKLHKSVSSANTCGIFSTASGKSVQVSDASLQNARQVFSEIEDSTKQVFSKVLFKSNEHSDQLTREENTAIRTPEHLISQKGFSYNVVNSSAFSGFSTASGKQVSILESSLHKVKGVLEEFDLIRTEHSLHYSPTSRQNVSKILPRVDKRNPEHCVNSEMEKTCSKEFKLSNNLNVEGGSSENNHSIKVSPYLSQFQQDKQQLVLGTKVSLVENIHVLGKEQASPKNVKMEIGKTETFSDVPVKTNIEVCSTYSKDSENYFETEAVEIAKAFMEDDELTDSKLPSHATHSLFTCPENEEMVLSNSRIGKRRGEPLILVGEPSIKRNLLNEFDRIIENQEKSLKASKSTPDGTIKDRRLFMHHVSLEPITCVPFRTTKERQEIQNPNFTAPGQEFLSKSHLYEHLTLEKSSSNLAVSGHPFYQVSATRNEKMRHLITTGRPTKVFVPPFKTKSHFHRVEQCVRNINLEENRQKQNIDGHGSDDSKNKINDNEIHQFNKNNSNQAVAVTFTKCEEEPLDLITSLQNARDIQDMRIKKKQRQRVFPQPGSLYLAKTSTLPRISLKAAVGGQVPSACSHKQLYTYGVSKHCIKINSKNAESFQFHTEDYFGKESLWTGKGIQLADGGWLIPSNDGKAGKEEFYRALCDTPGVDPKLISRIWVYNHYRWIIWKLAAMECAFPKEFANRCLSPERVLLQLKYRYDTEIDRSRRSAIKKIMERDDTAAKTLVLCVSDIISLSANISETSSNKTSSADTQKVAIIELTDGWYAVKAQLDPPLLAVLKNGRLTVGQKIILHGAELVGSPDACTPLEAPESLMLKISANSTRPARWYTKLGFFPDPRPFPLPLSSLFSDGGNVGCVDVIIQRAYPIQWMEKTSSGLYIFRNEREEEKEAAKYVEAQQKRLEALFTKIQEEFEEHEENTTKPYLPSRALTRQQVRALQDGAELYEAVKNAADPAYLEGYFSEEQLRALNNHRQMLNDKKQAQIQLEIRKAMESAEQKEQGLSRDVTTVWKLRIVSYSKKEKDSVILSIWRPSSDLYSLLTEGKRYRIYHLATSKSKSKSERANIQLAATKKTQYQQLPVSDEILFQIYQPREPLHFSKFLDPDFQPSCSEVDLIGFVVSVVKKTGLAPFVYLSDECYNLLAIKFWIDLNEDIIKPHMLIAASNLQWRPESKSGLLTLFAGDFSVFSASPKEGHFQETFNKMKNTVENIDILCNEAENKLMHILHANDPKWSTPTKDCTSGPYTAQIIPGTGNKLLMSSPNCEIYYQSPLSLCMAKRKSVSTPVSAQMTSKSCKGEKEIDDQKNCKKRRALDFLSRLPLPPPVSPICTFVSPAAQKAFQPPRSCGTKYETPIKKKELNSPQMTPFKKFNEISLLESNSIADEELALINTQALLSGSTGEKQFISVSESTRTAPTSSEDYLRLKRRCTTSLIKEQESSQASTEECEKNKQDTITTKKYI

For “BRAF35, endogenous protein in HeLa or MCF7 cell extracts”, the percent of endogenous BRAF35 present in the BRCA2 complex was 2 to 4%.
